Results from the DeepSol protein solubility set.

Experiment: soluble on expression in E. coli; label from the status in PepcDB or PDB records

Row | Sequence | soluble on expression in E. coli
1 | MYEGEIAIGPVHSTMLEPHRLRLFIEDEIVKDAELTIGVNHRGVERLMEGLPVEKACILCEKICGICSHIHLWSAARVAEIGCNIEVPERANHIRIIVEELERLHSHTLLFGHAFEILGHETMSMRCFMLREPIMQVFFEISGSRVHYSCPIIGGIRPRCNISETQISHIHDKISQYEEGLTKFIERMLNDPMIISRVKDVGVMDRKTAAKFHAVGPTARGSNVKSDMRKWGWVPEYDPYDFDEILFDSGDVFARLAVRFYECLESVKIIRQALDALKDTSDKRIYNPNYELNEFKPINCYTEAQRGEQYYSYGLDDEGLVRQAKIRTPTATNLGAMEDIVKGYHVSDAELIIASCDPCFTCTDRLMVLKEPFKK | not soluble
2 | GPGSMSSKEELAALMASDGDFEKKISLLKKAVVTVTKQKKEVEARQTQLQGELSTATQQLAEAQRANAALQRKVKSLEAQQEQERSSGSAFGQNMLKGLSSIMGNSDSANRGGARGERGSAGDRLSLSPEDVERLISENEQLHRQIYAFKTKLEDVQHSSAKDTERLKSEVARLQRETQELRRSLEANTATGDRLRADYLTERALGDFCRHFFVATLLRPQQERESFLTGTTVEVRWPAKGPSSNSAAAAFSDSLPAVVSERVTLALQSAAGTVKTLLRGVSVLAVVLQEQLPSRERATVGDLECLRDRLSVFLEAHTAKKDSLMYLLEQLDSQLSAVQHADEEGGSAPVSADAFVEAQGNIVQLVLEWVGLLRTQLPLLVESCVAILPHGNSYTMYTAHVSAGTGDGAAEPRKTTTERGEFVEEVTRHGYATLASIEGSLTAMRMLVERSPTAYYRCYNNGNRGGALPEPPTTKETLNFTSSLEATQPPMDLSSLLALQQFWWEGCTSVRSLRASILALNSGLVNVAEACNKSEIRDALNYLCKCLEAIAAASEEMYGSPRLAPADADAAIAALVPDALAPRTPAHAPPSEASSWALRPRTAIATSSTLTAEGVRDTAYADKYEELLVALSAADRAAASYYTQMNYLYVEMAEKEDALQTALEAVAHLQQLIVAERAEAKHTRQALQSQISLLSTQLVEMAGAPAAQTPQ | not soluble
3 | KLDKIDNKNRRIRKKLFLGEFAILGFEISCETDINDFDRYDAFVDDFIDYIDTLGLCFGGGGLELFEGFLCSTERYGSATEEQKAQVVAWLEARPEVKSAKAGDLLDANY | not soluble
4 | MSLKNDVSPLEIKVIDENSEQYGISKETLMENAGRAVYEEIVNLNVDFSKTYLFCGTGNNGGDGFVIARHLANNFATFVVLIGNERKIKTSETQRNFNTVKNMEFFGNLDYANILDDERAVELLKTIEKELENKQNDHILIIDAMLGTGITGILKNPYSTIVDYLNVLKSKYSKKLKMVSVDIQTGNLNADLEVILHKRKFENKNKNFVVKDIGIPKYIENMVGKGDFYLLNERKQNSHKGQNGNVLVIGGSKEYHGAPVFSALAASKFADIVTVASVSNVMNTVSNYPELMPYELTGDYIVQNHVDELLELSKNYDCVVLGSGISVNSDTKEFVNSYLNETNGKVVIDADAIKLIDYSNFKFKNNFIFTPHKKEFEYIENYIESSGFKSTVVLKGSLDIIFNSNNIKMNITGNQGMTVGGTGDILCGIIGAIYACNDAFPSACCGTYINGYCGDLLEKEYGYYYNSTDIIKILPKALKELLYEGHHHHHH | soluble
5 | MGSDKIHHHHHHMTIKETSRSEFITLRGLRYHVRQWGTPGAPKLFMLHGWMDVAASFQFLVDCLERDWHVIAPDWRGFGETDWPTRYPGTESYWFADYIADLEALLDHYQPNGQVDLVGHSMGANVACLYAGIRPERVHRVVDLEGFGLTQTRAEQAPKRYARWLDELRQRPELRTYDDVSGVAARLQKTNPRLPDDRAAFLAEHWSRRNEAGQWEILGDPAHKLVNPVLYRVDEVMAIWAEVSAPVLHVEARDSATLRHIAHKQTLEEFRERFRAFRDFREVVIDDAGHMLHHDQPAAVAALIESFIA | not soluble
6 | MTLSIIVAHDKQRVIGYQNQLPWHLPNDLKHIKQLTTGNTLVMARKTFESIGKPLPNRRNVVLTNQASFHHEGVDVINSLDEIKELSGHVFIFGGQTLYEAMIDQVDDMYITVIDGKFQGDTFFPPYTFEDWEVESSVEGQLDEKNTIPHTFLHLVRRKGK | soluble
7 | MGSDKIHHHHHHMASSGTEHDAMRARLVDVAQAIVEERGGAGLTLSELAARAGISQANLSRYFETREDLMEAIADYWFHPMVEIMEDVLASDLPPRRKMYEFFARRFVVMRRKWEADPVKLQTYIEVGNDYFEQVRSYIDLADHYLGEIIGEAMSDGAFSGLEVDETISLVNQMCAPYCALNTMTTFMERLSEDKLARIVDAVFDGLSAQDRGARSLTGLRAA | not soluble
8 | MGSDKIHHHHHHMEKLNFGIPEWAFEFHGHKCPYMPMGYRAGSYALKIAGLEKEKDHRTYLLSEMSPEDMNGCFNDGAQAATGCTYGKGLFSLLGYGKLALILYRPGRKAIRVHVRNSFMDELSTRASDFFRYRKQGYEPSEIPAGAIDPVLEWISSLEDEEIFEYREIDGFTFEPVKKNGAKVRCDVCGEYTYEADAKLLNGKPVCKPDYYGKK | not soluble
9 | MSLDLKITNGFYDPSHLSYEVVERKGLGHPDTLADGIAEQIEIDYSLYCLDKFGVIPHHNFDKIIIRGGHSVQDFGGSDFIEPIKIIFLGRASKKCFNSSIPLFKIQKKAATKYLNRILPNLDVENYVEFETLTSDFTTKTNWFSPEAIEDLPEYLDVPKANDTATMISYWPLTISEELALMIEGYFYKLDKNELPTPRFTKMGGDIKVMVVRNDLEYSIRINFPLISKFFNNDIESQLYVDKHVEKIKKYIEQKYKNISFSIDYHYYLTTTGSCIDFGEEGAVGRGNKTHGIISSFRPNTMEAPAGKNCTYFVGKVWGFLSDTIAKEIYEAFNTPCQIIMQLNIGSKLYRPTHLFIQTEESVDQERVLEIVNRHLNNGKQNTNLILSTQHFIPKTNVYDGEGHHHHHH | soluble
10 | MGSDKIHHHHHHMNAPNSQKILFAITKKSQQDGRSFPTIIRVLKRIGSCAPQGVFQMLHWKPEYLRAFVSERSPQKLFDIAVHLAQDLDMDYLGLNIRIQIATQTPRLYLYSNYPSEWIERYQRDDFYKQDPAANLSHSSTMPVLWTDELYKEAPQFREMACLYGLRHGWTQSLHDQQHNESQISVARPNGPIDEVELYDKAGSVQWLCHTLHAVLGEHHLNALCPPQPKMSERELEVLKWSAAGKTAADVASILSLSQSTVNFHIRSVITKTNAANKAGAIAIAALRGWI | not soluble
11 | NFTHVKGSVGSNSQYVGQVDSSMAFSDKVNGRINLEYRQADSYVDHVDSNDFFIAPTIRVLPADGHTIDIDVEYAHQELVPYRGVPSKNGKPVDLPVSTYFGGTNDYQESDSLRVAVDYEWRLNDQWVWNNRAAFNHIELEQKGTRQGKVTGNEVSQTVNNFGYDPRTTTTLQSELIWETNDNQLMLGADFNQIDIDLTLASDKTLPPQNIYNPVVGPTPDPGFKPFRDNTTTTTGVYVQDVYTWGDLSVIGNVRYDSMELEQQKAGSGKEKLDDDKVSYRAGLVYRINYDTSVYASLARSWQLPYAGIYINPKLAEFFHTDLKEVGAKAYLLDNALMLNAALFQIDQEQPQTNVDGDVIDKIEVRHQGIELEARGQITKQWDISVGYSYLDAEDKATGKKPNDVSDHLFSLWSTYQLDDNWRLGGGVKYVGDRYAGNDEAVALGDYTTVDLMAAYTTGRHKIQANAYNILDEKYILGATNGTSGLNQIGYGAPAEFMLSYGYQF | not soluble
12 | MKLKNTLLASALLSAAAFSVHAATELTPEQAAALKPYDRIVITGRFNAIGDAVSAVSRRADKEGAASFYVVDTSEFGNSGNWRVVADVYKADAPKADAPKNRVINGIVELPKDQAVQLEPYDTVTVQGFYRSQPEVNDAITKAAKQKGAYAFYIVRQIDANQGGNQRITAFIYKQDAKKRIVQSPDAIPADSEAGRAALAQGGEAAKKVEIPGVATSASPSAEVGRFFETQSSKGGRYTVTLPDGTKVEELNKATAAMMVPFDSVKFTGNYGNMTEISYQVAKRAAKKGAKYYHITRQWQERGNNITISADLYKLEHHHHHH | soluble
13 | MKEIKIGLIGFGTIGTGVAKLLQANAGLIADKVGAMVTLKKIADLDVTTDRGIELPPGTLTSNVADVLDDPEISVVIELIGGYEPAKSFVLRAINNGKHVVTANKALLALHGEEIYPAAAAKGVQVLFEAAVGGGIPVISAILGNMAANNFTTVLGILNGTCNYILTRMTQEGADFGDVLKTAQELGYAEADPTFDIEGVDTAHKLALLVSLCFGTKVDFNAIHTEGISSISSADIGFARDFGYKIKLLAIGKRTGDTVEARVHPTMIPVNYPLADVDGVFNAIRFTGDFIGPVMFYGRGAGMDPTASAVVGDVIEIARNIIAGVSRRCAPLGYRDEAVTTLALKPMGEIEGKYYLRFSAVDKPGVLAKISGALGKYDISIESMIQKGRSAGESVPIVIMTHEAREKDIRAALEEIDTFELISEKSRFIRIEDNLE | not soluble
